# Reference: the supplement of paper PMC12042874
# ± gives the uncertainty stated by the source.
# Assay: amyloid nucleation score (Sup35N fusion, yeast selection) (log enrichment); library NNK2; higher = more nucleation; inactive = no reads after selection
# Procedure, shortened: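 Sup35N fusions to peptides of 20 random codons were expressed in psi-negative yeast, induced 24 hours with 100 μM copper sulfate, and grown 7 days at 30°C on medium lacking adenine and uracil. Input and output plasmid inserts were sequenced by Illumina. The nucleation score is the DiMSum log enrichment of output over input reads, centred on the mode score of non-aggregating sequences. Sequences with under 100 input reads were excluded.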
row,Substance,amyloid nucleation score
1,FRFTQDMDFRAQFDELSWRL,2 ± 0.28
2,FRGLVILNRNGVCDILEYGC,-0.58 ± 0.27
3,FRGVLWLSYLQDYRFDLYCM,-0.773 ± 0.61
4,FRIYA,0.388 ± 0.29
5,FRMFNVGFPDRPIMFRVDRL,0.41 ± 0.74
6,FRRNKNN,inactive
7,FRRVLCYKYYSFA,2.42 ± 0.14
8,FRSGRWRNGALSWHALATL,0.658 ± 0.52
9,FRSMFISWVM,-0.271 ± 1
10,FRSNSDLISFERASFR,-1.62 ± 0.55
11,FRTASLHVCLFLSG,-0.316 ± 0.61
12,FRVDYKMKCAFASHFSNSFY,inactive
13,FRVIWVVLVACQVSFHVRFV,-0.283 ± 1
14,FRYIFRHKHGWTFLHKMVRK,-1.07 ± 1.1
15,FRYLDRSNYRKSCGYIITLT,-0.74 ± 1.1
16,FSDWIWTYCSQSFNGQE,-0.817 ± 0.76
17,FSEPWKWYYADLVFLSVTWL,inactive
18,FSEVSCGLCTMYTLFVEFFN,0.174 ± 1
19,FSFNIPQFINV,inactive
20,FSFRLYMEFLWGI,inactive
21,FSFYLGRKSMRWCNSCWYSW,-0.445 ± 0.22
22,FSGRKPSIVLHHSSECQP,2.38 ± 0.2
23,FSGSTIDWL,-0.302 ± 0.3
24,FSKSVVGSPERKHVDT,0.948 ± 0.34
25,FSMFMDIRRFMGSRWCV,0.089 ± 1.1

row,Substance,amyloid nucleation score
1,FSPLC,1.83 ± 0.14
2,FSRQISNGFIRGLFL,inactive
3,FSSFDIMRQLTMLNICLVSW,5.773 ± 0.047
4,FSSNLISPSVEISCVLIWLG,5.67 ± 0.074
5,FSSQFHLRAYNTIRCSLDDF,0.534 ± 0.8
6,FSSSEHVFQVDGGFDKNRPI,-1.47 ± 0.78
7,FSTCYPPSDWVSRMASETLN,-0.096 ± 0.65
8,FSVDMHRWLMTWRHQRDRRV,2.75 ± 0.18
9,FSVMMLMAVLMGTKIGVTEN,4.19 ± 0.087
10,FSVRVTSRFIRYEGSFHFSK,0.032 ± 0.76
11,FTGCVYSVFSNQQ,4.76 ± 0.11
12,FTIALIYTFLLISCLLGMSV,0.164 ± 1.1
13,FTLFVRHPGIVALERNFMVR,-0.062 ± 0.35
14,FTMGVRRLCYSWLRARFVKC,-0.368 ± 1
15,FTNLVTLYVYCYSFWYGILN,-0.232 ± 1.1
16,FTNNSPARSCDRVHGDGVRH,0.376 ± 0.35
17,FTNVSEIWMSFGHNPESGLA,2.92 ± 0.074
18,FTVLCYSSDIMEDFRFTHHN,4.12 ± 0.047
19,FVCLVLRLCTMGSRASGLKK,0.255 ± 1.1
20,FVCYADTNNGPQVVRTELSV,-0.299 ± 1.1
21,FVDDLARGLLVKRECSWQMQ,0.523 ± 0.33
22,FVEGLYWVSVVILG,-1.58 ± 1
23,FVEMLYLGDVGDCHILQCVY,inactive
24,FVGTAQEEIHGFMNCIVELR,inactive
25,FVHIIESELYSEQTRESHLL,-0.586 ± 0.29

row,Substance,amyloid nucleation score
1,FVKYNCIFNASLTCHK,7.686 ± 0.038
2,FVLTCRSSLYAVRDRLK,1.35 ± 0.43
3,FVLTSSMVLFWDGRNDARHG,4.31 ± 0.08
4,FVPSSLEGPLAGCYSAFIFE,inactive
5,FVRQDYKRVRDLFPTLNFDK,-0.949 ± 0.64
6,FVSIVPYRFL,-1.56 ± 0.48
7,FVSMNAGVYVGHRGHIMEFI,inactive
8,FVVLFLFYFEVFAVYKVSLG,inactive
9,FVVQPLSSFLWVSIA,1.05 ± 0.3
10,FVWMCQLS,6.297 ± 0.048
11,FVYGQWPNRSRAISSTSMFK,-0.723 ± 0.36
12,FVYNLTKTGLCYAQSVKYHN,-0.483 ± 0.39
13,FWCINVSTWYNNQELI,inactive
14,FWFMVCLIAG,-0.223 ± 0.48
15,FWIDYLVKFCCDLRMRMILK,1.64 ± 0.2
16,FWRSMTYVRF,-0.526 ± 0.36
17,FWVKVNMSLGMSNLFVYACL,6.298 ± 0.024
18,FWVRNVDTLWLSPRYVTWSG,-0.323 ± 0.33
19,FWYLLSLGQIIRSVNLGNWI,-0.78 ± 1.1
20,FYDVSCTRTDIMVESTSRLS,5.24 ± 0.086
21,FYEHRIIFFVLGFFNATTGS,inactive
22,FYESELLSARQFSVYVSLMM,inactive
23,FYFDGQLV,-0.743 ± 0.76
24,FYHYDLLYRSGVLWRNHHGP,2.77 ± 0.1
25,FYIGILGDLWWRRR,1.15 ± 0.57

row,Substance,amyloid nucleation score
1,FYIMFLVRCYKDEPSTRANL,-0.796 ± 0.62
2,FYKREVIFVLRLFFTVKQGR,-1.73 ± 1.1
3,FYLFQWCK,-0.889 ± 1.1
4,FYLMPDCLWGGKSSWSFLHL,-0.873 ± 0.5
5,FYPSWNLYRVRGQPYLNRVR,-0.352 ± 1.1
6,FYTYCSLGWTEAAGAVFLES,-1.34 ± 0.75
7,FYVNSWPSPLGTYWRGYNGR,0.106 ± 1
8,FYWNEICFNSSKE,inactive
9,FYYSDDEFKCTVEIPVIYLI,-1.07 ± 0.5
10,GADGISCFGISDKLGYDKFL,-0.1 ± 1
11,GAGLMALNLTHFVGGGLSTN,-0.179 ± 0.76
12,GALRPAFLSCKMVWR,0.528 ± 0.49
13,GALYLRDVLVICIMCGKIRY,2.73 ± 0.1
14,GARASQRCESVGLPLEYVSR,0.974 ± 0.29
15,GARMHCGFCMGSWWYVFWVR,1.32 ± 0.37
16,GAVRVYNYNYQEVKTLLLVE,-0.425 ± 0.32
17,GCCPAALFEFT,-1.07 ± 0.78
18,GCDLKLGVKCLKNERRVPEF,0.382 ± 0.8
19,GCIGGHRFYSPRSNSVFEVG,3.44 ± 0.081
20,GCNRQMSARK,4.29 ± 0.044
21,GCQGVEGSESEQIDQIENWA,0.978 ± 0.74
22,GCVNYNGRCEVDGRAD,-0.227 ± 0.23
23,GCYHVMVRNNKTGVLVMRSA,0.545 ± 0.57
24,GDFDKDV,-0.188 ± 0.5
25,GDGRVYMVIGSGRGRV,0.506 ± 0.41

row,Substance,amyloid nucleation score
1,GDGSRS,0.813 ± 0.23
2,GDIRLLSRNVLGYIGALLDL,0.179 ± 0.39
3,GDLRYQSPSLCFCFMSFGDQ,5.971 ± 0.024
4,GDSNG,-0.532 ± 0.29
5,GDTYMGVYANLVMLALYGPG,5.2 ± 0.088
6,GDYGPSDIMKKQFLFVSLVY,-0.744 ± 1.1
7,GEDHYIPQLFDGSVIILART,0.117 ± 0.79
8,GEFLYNT,-0.237 ± 1
9,GELGQCVIKSVMSMLHKRAN,-0.347 ± 0.79
10,GESTWATVLACPSERRSCSR,0.559 ± 0.33
11,GFIYLILTL,1.28 ± 0.13
12,GFKAMRCLWSGVARSIVRDS,-0.242 ± 0.49
13,GFKYVRSRNSGALYKYSS,-0.962 ± 0.54
14,GFPRMTIHVKFHGQFSCFII,0.615 ± 0.5
15,GFSEL,0.306 ± 0.65
16,GFTRKASGADTRGRRTAVSS,1.61 ± 0.37
17,GFVYQVIITIRHVCSLKRNR,0.76 ± 0.16
18,GGFSLMIFVCAGSHLG,5.26 ± 0.07
19,GGGSG,0.123 ± 1
20,GGIAACPGLEINWKFDLVQW,0.914 ± 0.32
21,GGILH,-0.254 ± 1
22,GGLELLLGKMNVNVAMLKSF,1.09 ± 0.17
23,GGLFRFYS,inactive
24,GGLVVECRVGW,3.42 ± 0.13
25,GGNSQMFRLSLGDTKCSGSY,-1.06 ± 1.1

row,Substance,amyloid nucleation score
1,GGNVLRE,-0.527 ± 0.35
2,GGREARMGRKKGERVYRVRF,0.657 ± 0.56
3,GGSVMQILGWFLQAV,0.683 ± 0.42
4,GGVAETGERFWHSRLHG,0.679 ± 0.81
5,GHIFSRHVKGQLHGWEEDGP,0.058 ± 1
6,GHLYSISCVFNI,8.633 ± 0.044
7,GHMVYRTNVGRSV,0.187 ± 0.74
8,GIFSCRLCSMLIELLMLRIM,-0.505 ± 1.1
9,GIGFKWGTILLKSLGNIYSQ,-0.263 ± 0.76
10,GIGYRNVISSIMGFRFTGIR,0.109 ± 0.53
11,GIHRSMTFLTNQNRLIWSHG,1.17 ± 0.4
12,GIIGYDVKNKHHLTVGLRFI,-0.285 ± 0.24
13,GILNRTRPFR,-0.595 ± 0.28
14,GIPMSSPNGLDTYSTPMH,2.63 ± 0.074
15,GIQGLRVWFAYMFPSVVLLC,-0.987 ± 0.78
16,GISVICLYGVQYSDVGGVNL,5.098 ± 0.043
17,GIVYVALSHYLAVNTKVFMP,0.477 ± 0.66
18,GKCYFA,-1.87 ± 0.62
19,GKDGRVFGSEAYWMEGKRKW,0.235 ± 0.8
20,GKGRMYES,0.738 ± 0.24
21,GKINDSGTSYSEKRSGPCRL,-0.874 ± 0.25
22,GKSEVGLGVGEHMQSEHGGS,-0.055 ± 0.49
23,GKYSLTTCAR,0.449 ± 0.8
24,GLGAKYWIYVVGFHCVHN,0.289 ± 0.39
25,GLGLICLQMGGFCMWRFRRM,0.197 ± 0.24

row,Substance,amyloid nucleation score
1,GLGSRWRCA,2.01 ± 0.24
2,GLGYSLICNLTSICGKNNV,-0.147 ± 1.1
3,GLHSGNFTACICM,8.731 ± 0.055
4,GLICRV,0.518 ± 0.46
5,GLIGCAMSVVPHEELCVRTC,1.07 ± 0.29
6,GLKDAIMYSVVTLIRYRQDD,-0.809 ± 0.56
7,GLNVFCEKYISFKVMGIVER,5.24 ± 0.069
8,GLQRKGCP,-0.356 ± 1.1
9,GLRHGLCRSLLY,-0.642 ± 1.1
10,GLRNDGAEVINSQPFLAHMC,0.497 ± 0.5
11,GLRRVKFYIKVIFAKSSLVI,-1.84 ± 0.49
12,GLSAHYA,0.113 ± 1.1
13,GLTLMSR,1.06 ± 0.12
14,GLTSFMLDVLRGETAHRGEG,0.972 ± 0.52
15,GLTYKSDWSSFRSVYL,-0.771 ± 0.55
16,GLYEYPHGKTIMVDWMAGRL,1.17 ± 0.28
17,GMAFAKA,0.077 ± 0.63
18,GMFLWLFLVPRYHPTSTELG,0.219 ± 1
19,GMGQTRKCHAGGNWHVYSCR,0.738 ± 0.47
20,GMLRGSK,-0.359 ± 0.39
21,GMNAAGEVWVRGWTSGCMVY,0.225 ± 0.5
